Columns and labels:
[1] = molecular target: transient receptor potential vanilloid 1 (TRPV1), rat, in primary neonatal cardiomyocytes (rat) (UniProt O35433); assay: cell-based or functional assay
[2] = system: V1-cal

transient receptor potential vanilloid 1 (TRPV1), rat, in primary neonatal cardiomyocytes (rat), sequence (O35433 whole entry): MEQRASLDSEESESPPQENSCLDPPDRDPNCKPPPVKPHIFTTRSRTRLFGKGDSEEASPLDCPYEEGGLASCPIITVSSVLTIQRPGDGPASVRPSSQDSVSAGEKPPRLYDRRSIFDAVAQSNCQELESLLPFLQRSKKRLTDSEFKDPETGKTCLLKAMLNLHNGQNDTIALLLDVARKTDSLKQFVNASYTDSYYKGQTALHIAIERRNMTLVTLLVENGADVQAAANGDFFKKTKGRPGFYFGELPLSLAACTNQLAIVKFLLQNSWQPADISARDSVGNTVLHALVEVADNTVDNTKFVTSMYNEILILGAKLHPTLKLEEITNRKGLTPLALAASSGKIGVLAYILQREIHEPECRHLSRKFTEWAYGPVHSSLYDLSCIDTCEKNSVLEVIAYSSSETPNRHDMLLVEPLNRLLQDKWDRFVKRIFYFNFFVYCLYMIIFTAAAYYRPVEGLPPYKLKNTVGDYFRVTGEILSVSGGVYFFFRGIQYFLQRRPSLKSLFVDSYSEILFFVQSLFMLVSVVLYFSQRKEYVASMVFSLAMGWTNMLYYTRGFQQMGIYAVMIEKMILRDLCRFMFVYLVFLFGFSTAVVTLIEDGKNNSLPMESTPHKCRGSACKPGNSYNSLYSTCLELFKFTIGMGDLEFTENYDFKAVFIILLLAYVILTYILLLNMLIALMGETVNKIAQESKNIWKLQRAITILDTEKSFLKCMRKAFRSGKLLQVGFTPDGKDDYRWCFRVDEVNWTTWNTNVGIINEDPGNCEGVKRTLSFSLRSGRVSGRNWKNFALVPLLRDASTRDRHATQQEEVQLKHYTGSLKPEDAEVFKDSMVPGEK

fold decrease in negative change in mitochondrial membrane potential caused by capsaicin (1 µM) in primary neonatal cardiomyocytes, with V1-cal (1 µM) given 10 minutes before [1] [fold] | Substance | calcineurin activity by free phosphate release from a calcineurin substrate (colorimetric, peptide at 10 µM, against TAT at 10 µM) [2]
10 | calcineurin, endogenous in rat primary neonatal cardiomyocytes (enzyme) | –
– | recombinant calcineurin | In comparison to TAT, V1-cal reduced the ability for calcineurin to dephosphorylate a calcineurin substrate as measured by free phosphate release in vitro

— patent US20190085040A1
